Laboratory results as given in publication PMC9166816, “RNF219 regulates CCR4-NOT function in mRNA translation and deadenylation” (Scientific Reports, 2022).
Each block holds one binder with its values, some of them ahead of it.

Target: CCR4-NOT complex (human (endogenous in human cell lines), UniProt A5YKK6 1-2376; Q9NZN8 1-540; O75175 1-753; Q9H9A5 1-744; Q9UKZ1 1-510)
Experiment: cell-based or functional assay

- Renilla/Firefly luciferase ratio (RL/FL) of the 5BoxB reporter with tethered NHA-RNF219-Id (lambdaN-HA tagged form of the allele): 1.5 RL/FL ratio
B1: RNF219-Id, CCR4-NOT complex interaction defective RNF219 allele (natural protein)
chain: MAQTVQNVTLSLTLPITCHICLGKVRQPVICINNHVFCSICIDLWLKNNSQCPACRVPITPENPCKEIIGGTSESEPMLSHTVRKHLRKTRLELLHKEYEDEIDCLQKEVEELKSKNLSLESQIKTILDPLTLVQGNQNEDKHLVTDNPSKINPETVAEWKKKLRTANEIYEKVKDDVDKLKEANKKLKLENGGLVRENLRLKAEVDNRSPQKFGRFAVAALQSKVEQYERETNRLKKALERSDKYIEELESQVAQLKNSSEEKEAMNSICQTALSADGKGSKGSEEDVVSKNQGDSARKQPGSSTSSSSHLAKPSSSRLCDTSSARQESTSKADLNCSKNKDLYQEQVEVMLDVTDTSMDTYLEREWGNKPSDCVPYKDEELYDLPAPCTPLSLSCLQLSTPENRESSVVQAGGSKKHSNHLRKLVFDDFCDSSNVSNKDSSEDDISRSENEKKSECFSSPKTGFWDCCSTSYAQNLDFESSEGNTIANSVGEISSKLSEKSGLCLSKRLNSIRSFEMNRTRTSSEASMDAAYLDKISVENSKSPCNNGFKSLDLDGLSKSSQGSEFLEEPDKLEEKTELNLSKGSLTNDQLENGSEWKPTSFFLLSPSDQEMNEDFSLHSSSCPVTNEIKPPSCLFQTEFSQGILLSSSHRLFEDQRFGSSLFKMSSEMHSLHNHLQSPWSTSFVPEKRNKNVNQSTKRKIQSSLSSASPSKATKS

- Renilla/Firefly luciferase ratio (RL/FL) of the 5BoxB reporter with tethered NHA-RNF219: 0.307 RL/FL ratio
B2: lambdaN-peptide and HA-tagged RNF219 (NHA-RNF219) (natural protein)
chain: MAQTVQNVTLSLTLPITCHICLGKVRQPVICINNHVFCSICIDLWLKNNSQCPACRVPITPENPCKEIIGGTSESEPMLSHTVRKHLRKTRLELLHKEYEDEIDCLQKEVEELKSKNLSLESQIKTILDPLTLVQGNQNEDKHLVTDNPSKINPETVAEWKKKLRTANEIYEKVKDDVDKLKEANKKLKLENGGLVRENLRLKAEVDNRSPQKFGRFAVAALQSKVEQYERETNRLKKALERSDKYIEELESQVAQLKNSSEEKEAMNSICQTALSADGKGSKGSEEDVVSKNQGDSARKQPGSSTSSSSHLAKPSSSRLCDTSSARQESTSKADLNCSKNKDLYQEQVEVMLDVTDTSMDTYLEREWGNKPSDCVPYKDEELYDLPAPCTPLSLSCLQLSTPENRESSVVQAGGSKKHSNHLRKLVFDDFCDSSNVSNKDSSEDDISRSENEKKSECFSSPKTGFWDCCSTSYAQNLDFESSEGNTIANSVGEISSKLSEKSGLCLSKRLNSIRSFEMNRTRTSSEASMDAAYLDKISELDSMMSESDNSKSPCNNGFKSLDLDGLSKSSQGSEFLEEPDKLEEKTELNLSKGSLTNDQLENGSEWKPTSFFLLSPSDQEMNEDFSLHSSSCPVTNEIKPPSCLFQTEFSQGILLSSSHRLFEDQRFGSSLFKMSSEMHSLHNHLQSPWSTSFVPEKRNKNVNQSTKRKIQSSLSSASPSKATKS
